Patent US20200377590A1 (Hoffmann-La Roche, published 2020)
Substitutions are numbered along the chain they refer to.

T1: CD81 (UniProt P60033 1-236, limits assumed)
T1 construct: whole, on cells; also called CD81 receptor
T1 sequence (looked up): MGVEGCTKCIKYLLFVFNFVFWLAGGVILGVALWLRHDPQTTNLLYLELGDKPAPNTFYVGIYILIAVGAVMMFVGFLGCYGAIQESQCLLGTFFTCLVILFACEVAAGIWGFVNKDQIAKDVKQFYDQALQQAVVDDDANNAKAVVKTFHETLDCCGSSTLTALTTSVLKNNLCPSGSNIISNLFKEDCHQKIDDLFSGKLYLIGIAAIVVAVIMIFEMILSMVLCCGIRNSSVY

B1: CD81K13 HC 5b-hVH_1_69 / LC CD81K13 (antibody, V domains shown)
VH: QVQLVQSGAELVKPGSSVKVSCKASGFNFKDSYLHWVRQAPGQGLEWMGRIDTGNGNVKFDPKFQGRVTITTDESTSTAYMELSSLRSEDTAVYYCVPYGYGFHSWGQGTLVTVSS
VL: DIQMTQSPASLSVSVGETVTITCRASENIYRTLAWYLQKQGKSPQLLVYGATTLADGVPSRFSGSGSGTQYYLKINSLQSEDFGTYHCQHFWGTPWTFGGGTKVEIK
notes: human constant region
B2: CD81K13 HC 05-hVH_1_69 / LC 1c-hVK_3_15 (antibody, V domains shown)
VH: B1 VH with L11V, V12K
VL: EIVMTQSPATLSVSPGERATLSCRASENIYRTLAWYQQKPGQAPRLLIYGATTLADGIPARFSGSGSGTEFTLTISSLQSEDFGVYYCQHFWGTPWTFGQGTKVEIK
notes: human constant region
B3: CD81K13 HC 05-hVH_1_69 / LC 05-hVK_1_39 (antibody, V domains shown)
VH: B1 VH with L11V, V12K
VL: DIQMTQSPSSLSASVGDRVTITCRASENIYRTLAWYQQKPGKAPKLLIYAATTLASGVPSRFSGSGSGTDFTLTISSLQPEDFATYYCQHFWGTPWTFGQGTKVEIK
notes: human constant region
B4: CD81K13 HC 5b-hVH_1_69 / LC 5b-hVK_1_39-GA (antibody, V domains shown)
VH: B1 VH
VL: B3 VL with A50G, S56D
notes: human constant region
B5: CD81K13 HC 5b-hVH_1_69 / LC 01-hVK_3_15 (antibody, V domains shown)
VH: B1 VH
VL: B2 VL with L54R, D56T
notes: human constant region
B6: CD81K13 HC 5b-hVH_1_69-GA / LC 05-hVK_1_39 (antibody, V domains shown)
VH: B1 VH
VL: B3 VL
notes: human constant region
B7: CD81K13 HC 5b-hVH_1_69 / LC 04-hVK_1_9 (antibody, V domains shown)
VH: B1 VH
VL: B3 VL with M4L, S10F, D70E, A84G
notes: human constant region
B8: CD81K13 HC 5b-hVH_1_69-GA / LC 1b-hVK_3_15 (antibody, V domains shown)
VH: B1 VH
VL: B2 VL with G84A
notes: human constant region
B9: CD81K13 HC 06-hVH_1_3 / LC CD81K13 (antibody, V domains shown)
VH: B1 VH with L11V, V12K, S16A, F27Y, N28T, G44R, E74T, T76A, V97A
VL: B1 VL
notes: human constant region
B10: CD81K13 HC 06-hVH_1_3 / LC 01-hVK_3_15 (antibody, V domains shown)
VH: B1 VH with L11V, V12K, S16A, F27Y, N28T, G44R, E74T, T76A, V97A
VL: B2 VL with L54R, D56T
notes: human constant region
B11: CD81K13 HC 5b-hVH_1_69-GA / LC 04-hVK_1_9 (antibody, V domains shown)
VH: B1 VH
VL: B3 VL with M4L, S10F, D70E, A84G
notes: human constant region
B12: CD81K13 HC 5b-hVH_1_69 / LC 06-hVK_1_39 (antibody, V domains shown)
VH: B1 VH
VL: B3 VL with A84G
notes: human constant region
B13: CD81K13 HC 5b-hVH_1_69 / LC 07-hVK_1_27 (antibody, V domains shown)
VH: B1 VH
VL: B3 VL with A43V, F83V, A84G, H90K
notes: human constant region
B14: CD81K13 HC 5b-hVH_1_69 / LC 03-hVK_1_9 (antibody, V domains shown)
VH: B1 VH
VL: B3 VL with M4L, S10F, D70E
notes: human constant region
B15: CD81K13 HC 07-hVH_1_3 / LC 01-hVK_3_15 (antibody, V domains shown)
VH: B1 VH with L11V, V12K, S16A, F27Y, N28T, E74T, T76A, V97A
VL: B2 VL with L54R, D56T
notes: human constant region
B16: CD81K13 HC 5b-hVH_1_69-GA / LC 01-hVK_3_15 (antibody, V domains shown)
VH: B1 VH
VL: B2 VL with L54R, D56T
notes: human constant region
B17: CD81K13 HC 5b-hVH_1_69-GA / LC 5b-hVK_1_39 (antibody, V domains shown)
VH: B1 VH
VL: B3 VL with A50G, S56D
notes: human constant region
B18: CD81K13 HC 03-hVH_1_69 / LC 1c-hVK_3_15 (antibody, V domains shown)
VH: B1 VH with L11V, V12K, F60Y, D61A, P62Q, T72A, V97A
VL: B2 VL
notes: human constant region
B19: CD81K13 HC 05-hVH_1_69 / LC 5b-hVK_1_39 (antibody, V domains shown)
VH: B1 VH with L11V, V12K
VL: B3 VL with A50G, S56D
notes: human constant region
B20: CD81K13 HC 05-hVH_1_69 / LC 01-hVK_3_15 (antibody, V domains shown)
VH: B1 VH with L11V, V12K
VL: B2 VL with L54R, D56T
notes: human constant region
B21: CD81K13 HC 5b-hVH_1_69-GA / LC CD81K13 (antibody, V domains shown)
VH: B1 VH
VL: B1 VL
notes: human constant region
B22: CD81K13 HC 05-hVH_1_69 / LC 1b-hVK_3_15 (antibody, V domains shown)
VH: B1 VH with L11V, V12K
VL: B2 VL with G84A
notes: human constant region
B23: CD81K13 HC 06-hVH_1_3 / LC 1c-hVK_3_15 (antibody, V domains shown)
VH: B1 VH with L11V, V12K, S16A, F27Y, N28T, G44R, E74T, T76A, V97A
VL: B2 VL
notes: human constant region
B24: CD81K13 HC 03-hVH_1_69 / LC 01-hVK_3_15 (antibody, V domains shown)
VH: B1 VH with L11V, V12K, F60Y, D61A, P62Q, T72A, V97A
VL: B2 VL with L54R, D56T
notes: human constant region
B25: CD81K13 HC 05-hVH_1_69 / LC 03-hVK_1_9 (antibody, V domains shown)
VH: B1 VH with L11V, V12K
VL: B3 VL with M4L, S10F, D70E
notes: human constant region
B26: CD81K13 HC 05-hVH_1_69 / LC 06-hVK_1_39 (antibody, V domains shown)
VH: B1 VH with L11V, V12K
VL: B3 VL with A84G
notes: human constant region
B27: CD81K13 HC 03-hVH_1_69 / LC 06-hVK_1_39 (antibody, V domains shown)
VH: B1 VH with L11V, V12K, F60Y, D61A, P62Q, T72A, V97A
VL: B3 VL with A84G
notes: human constant region
B28: CD81K13 HC 03-hVH_1_69 / LC 05-hVK_1_39 (antibody, V domains shown)
VH: B1 VH with L11V, V12K, F60Y, D61A, P62Q, T72A, V97A
VL: B3 VL
notes: human constant region
B29: CD81K13 HC 05-hVH_1_69 / LC 04-hVK_1_9 (antibody, V domains shown)
VH: B1 VH with L11V, V12K
VL: B3 VL with M4L, S10F, D70E, A84G
notes: human constant region
B30: CD81K13 HC 5b-hVH_1_69-GA / LC 1c-hVK_3_15 (antibody, V domains shown)
VH: B1 VH
VL: B2 VL
notes: human constant region
B31: CD81K13 HC 07-hVH_1_3 / LC 1b-hVK_3_15 (antibody, V domains shown)
VH: B1 VH with L11V, V12K, S16A, F27Y, N28T, E74T, T76A, V97A
VL: B2 VL with G84A
notes: human constant region
B32: CD81K13 HC 03-hVH_1_69 / LC 5b-hVK_1_39 (antibody, V domains shown)
VH: B1 VH with L11V, V12K, F60Y, D61A, P62Q, T72A, V97A
VL: B3 VL with A50G, S56D
notes: human constant region
B33: CD81K13 HC 5b-hVH_1_69 / LC 05-hVK_1_39 (antibody, V domains shown)
VH: B1 VH
VL: B3 VL
notes: human constant region
B34: CD81K13 HC 06-hVH_1_3 / LC 1b-hVK_3_15 (antibody, V domains shown)
VH: B1 VH with L11V, V12K, S16A, F27Y, N28T, G44R, E74T, T76A, V97A
VL: B2 VL with G84A
notes: human constant region
B35: CD81K13 HC 03-hVH_1_69 / LC 04-hVK_1_9 (antibody, V domains shown)
VH: B1 VH with L11V, V12K, F60Y, D61A, P62Q, T72A, V97A
VL: B3 VL with M4L, S10F, D70E, A84G
notes: human constant region
B36: CD81K13 HC 5b-hVH_1_69 / LC 5b-hVK_1_39 (antibody, V domains shown)
VH: B1 VH
VL: B3 VL with A50G, S56D
notes: human constant region
B37: CD81K13 HC 5b-hVH_1_69 / LC 1b-hVK_3_15 (antibody, V domains shown)
VH: B1 VH
VL: B2 VL with G84A
notes: human constant region
B38: CD81K13 HC 07-hVH_1_3 / LC CD81K13 (antibody, V domains shown)
VH: B1 VH with L11V, V12K, S16A, F27Y, N28T, E74T, T76A, V97A
VL: B1 VL
notes: human constant region
B39: CD81K13 HC 03-hVH_1_69 / LC 5b-hVK_1_39-GA (antibody, V domains shown)
VH: B1 VH with L11V, V12K, F60Y, D61A, P62Q, T72A, V97A
VL: B3 VL with A50G, S56D
notes: human constant region
B40: CD81K13 HC 5b-hVH_1_69 / LC 1c-hVK_3_15 (antibody, V domains shown)
VH: B1 VH
VL: B2 VL
notes: human constant region
B41: CD81K13 HC 05-hVH_1_69 / LC 5b-hVK_1_39-GA (antibody, V domains shown)
VH: B1 VH with L11V, V12K
VL: B3 VL with A50G, S56D
notes: human constant region
B42: CD81K13 HC 5b-hVH_1_69-GA / LC 03-hVK_1_9 (antibody, V domains shown)
VH: B1 VH
VL: B3 VL with M4L, S10F, D70E
notes: human constant region
B43: CD81K13 HC 03-hVH_1_69 / LC 1b-hVK_3_15 (antibody, V domains shown)
VH: B1 VH with L11V, V12K, F60Y, D61A, P62Q, T72A, V97A
VL: B2 VL with G84A
notes: human constant region
B44: CD81K13 HC 03-hVH_1_69 / LC 03-hVK_1_9 (antibody, V domains shown)
VH: B1 VH with L11V, V12K, F60Y, D61A, P62Q, T72A, V97A
VL: B3 VL with M4L, S10F, D70E
notes: human constant region
B45: CD81K13 HC 07-hVH_1_3 / LC 1c-hVK_3_15 (antibody, V domains shown)
VH: B1 VH with L11V, V12K, S16A, F27Y, N28T, E74T, T76A, V97A
VL: B2 VL
notes: human constant region

Molecular target: T1, CD81
Assay: cell ELISA;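 also: antibody binding to HuH7 cells expressing CD81 versus a CD81-negative HuH7 control line, bound antibody detected by secondary reagent, absorbance at 450 nm with 620 nm reference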
Method: For the binding cell ELISA assay, HuH7-Rluc-H3 (positive cell line expressing CD81) and HuH7-Rluc-L1 (negative control cell line) were propagated in F-12 DMEM medium with 10% FCS at 37° C. and 5% CO₂. On day 1, the cells were trypsinized at approximately 90% confluence and resuspended at 4×10⁵ cells/mL. […] On day 2, the antibody samples to be tested were prepared in a separate polypropylene round bottom plate with a twofold desired concentration with a final volume of 120 μl. All of the assay samples were diluted in cell culture medium. […] After fixation, each well was washed 3 times with 200 μL PBS/0.05% Tween. The secondary incubation step for detection of bound anti-CD81 antibodies was performed for 2 h at room temperature on a reciprocal shaker. […] Each well was washed three times with 200 μL PBS/0.05% Tween to remove unbound antibodies. […] The absorbance was read using the ELISA Tecan reader at 450 nm with 620 nm reference wavelength.

Going from B1 to B2, the ELISA data falls from 0.813 to 0.767.

Compared with B3, B4 is lower in ELISA data: 0.91 for the first, 0.646 for the second.

Compared with B5, B6 is higher in ELISA data: 0.749 for the first, 0.858 for the second.

First: B7
Second: B8
The ELISA data of the first is higher: 0.695 for the first, 0.648 for the second.

Going from B9 to B10, the ELISA data rises from 0.447 to 0.547.

First: B11
Second: B12
The ELISA data of the first is higher: 0.786 for the first, 0.522 for the second.

Compared with B13, B14 is higher in ELISA data: 0.114 for the first, 0.73 for the second.

Going from B15 to B16, the ELISA data rises from 0.459 to 0.739.

Going from B17 to B18, the ELISA data falls from 0.737 to 0.252.

Going from B19 to B20, the ELISA data falls from 0.692 to 0.684.

Compared with B21, B22 is lower in ELISA data: 0.935 for the first, 0.624 for the second.

Going from B23 to B24, the ELISA data rises from 0.34 to 0.649.

First: B25
Second: B26
The ELISA data of the first is higher: 0.787 for the first, 0.603 for the second.

Compared with B27, B28 is higher in ELISA data: 0.484 for the first, 0.525 for the second.

First: B29
Second: B30
The ELISA data of the first is lower: 0.685 for the first, 0.794 for the second.

First: B31
Second: B32
The ELISA data of the first is lower: 0.367 for the first, 0.546 for the second.

First: B33
Second: B34
The ELISA data of the first is higher: 0.905 for the first, 0.394 for the second.

Compared with B35, B36 is higher in ELISA data: 0.188 for the first, 0.463 for the second.

Compared with B37, B38 is lower in ELISA data: 0.646 for the first, 0.572 for the second.

Compared with B39, B40 is higher in ELISA data: 0.552 for the first, 0.701 for the second.

First: B41
Second: B42
The ELISA data of the first is lower: 0.551 for the first, 0.788 for the second.

Going from B43 to B44, the ELISA data falls from 0.403 to 0.208.

Work on B45 yielded an ELISA data of 0.337.
